B1: ADC2 (CDCP1 mAb conjugated to compound 20, DAR of 4) (antibody, IgG1, V domains shown)
VH: EVQLLESGGGLVQPGGSLRLSCAASGFTFSNYAMNWVRQAPGKGLEWVSAISGGGGSTYYADSVKGRFTISRDNSKNTLYLQMNSLRAEDTAVYYCAKESITMVRGVMDYYGMDVWGQGTTVTVSS
VL: DIQLTQSPSFLSASVGDRVTITCRASQGISSYLAWYQQKPGKAPKLLIYAASTLQGGVPSRFSGSGSGTEFTLTISSLQPEDFATYYCQHLNRFPRTFGQGTKVEIK
modifications: compound 20 (maleimide-Val-Ala-PDD linker-payload) conjugated stochastically to reduced cysteines of the IgG1, average DAR 4.2; sites not stated
B2: ADC4 (CDCP1 mAb conjugated to compound 30, DAR of 4) (antibody, IgG1, V domains shown)
VH: B1 VH
VL: B1 VL
modifications: compound 30 (Mal-amido-PEG8-Val-Ala-exatecan) conjugated stochastically to reduced cysteines of the IgG1, average DAR 4; sites not stated

Experiments:
[1] = system: HexA and MS1 DNA fragments; test: DNA footprinting; assay type: binding
Protocol: Footprinting reactions were performed as using previously described methods using the DNA fragments HexA and HexB, which together contain all 64 symmetrical hexanucleotide sequences, and MS1 that contains all possible […] tetranucleotide sequences. The DNA fragments were obtained by cutting the parent plasmids with HindIII and SacI (for HexA and MS1) or EcoRI and PstI (for HexB), and were labelled at the 3′-end of the HindIII or EcoRI sites with [α-^32P]dATP using reverse transcriptase or exo-Klenow fragment. After gel purification, the radiolabelled DNA was dissolved in 10 mM Tris-HCl pH 7.5 containing 0.1 mM EDTA, at a concentration of about 10 c.p.s per μL as determined on a hand held Geiger counter. 1.5 μL of radiolabelled DNA was mixed with 1.5 μL ligand that had been freshly diluted in 10 mM Tris-HCl pH 7.5, containing 10 mM NaCl. The complexes were left to equilibrate for at least 12 hours before digesting with 2 μL DNase I (final concentration about 0.01 units/mL). The reactions were stopped after 1 minute by adding 4 μL of formamide containing 10 mM EDTA and bromophenol blue (0.1% w/v). The samples were then heated at 100° C. for 3 minutes before loading onto 8% denaturing polyacrylamide gels containing 8 M urea. Gels were fixed in 10% acetic acid, transferred to 3 MM paper, dried and exposed to a phosphor screen overnight, before analysing with a Typhoon phosphorimager
The DNA sequence selectivity profile of the molecules was investigated using a modification of a previously established DNA footprinting assay. Following an overnight incubation of the ligand-DNA complexes, the mixture was mixed with strand separation buffer containing 10 mM EDTA, 10 mM NaOH, 0.1% bromophenol blue, 80% formamide and incubated at 100° C. for 3 min. The mixture was then immediately cooled on ice and run on an 8% denaturing gel. […] The possible adducts formed within the HexA sequences are shown in FIGS. 20 and 21, respectively.

[2] = biological target: T1, huCDCP1(F30-T667 Q525)-8×His_T3 (human, UniProt Q9H5V8 30-667); test: SPR, huCDCP1(F30-T667 Q525)-8×His_T3 as analyte; mAb lot T14
T1 construct: The construct name gives the limits F30-T667 and Q525; also called recombinant CDCP1 ECD; CDCP1 ECD
T1 sequence (Q9H5V8 other isoform, or with tags, fused parts or gaps): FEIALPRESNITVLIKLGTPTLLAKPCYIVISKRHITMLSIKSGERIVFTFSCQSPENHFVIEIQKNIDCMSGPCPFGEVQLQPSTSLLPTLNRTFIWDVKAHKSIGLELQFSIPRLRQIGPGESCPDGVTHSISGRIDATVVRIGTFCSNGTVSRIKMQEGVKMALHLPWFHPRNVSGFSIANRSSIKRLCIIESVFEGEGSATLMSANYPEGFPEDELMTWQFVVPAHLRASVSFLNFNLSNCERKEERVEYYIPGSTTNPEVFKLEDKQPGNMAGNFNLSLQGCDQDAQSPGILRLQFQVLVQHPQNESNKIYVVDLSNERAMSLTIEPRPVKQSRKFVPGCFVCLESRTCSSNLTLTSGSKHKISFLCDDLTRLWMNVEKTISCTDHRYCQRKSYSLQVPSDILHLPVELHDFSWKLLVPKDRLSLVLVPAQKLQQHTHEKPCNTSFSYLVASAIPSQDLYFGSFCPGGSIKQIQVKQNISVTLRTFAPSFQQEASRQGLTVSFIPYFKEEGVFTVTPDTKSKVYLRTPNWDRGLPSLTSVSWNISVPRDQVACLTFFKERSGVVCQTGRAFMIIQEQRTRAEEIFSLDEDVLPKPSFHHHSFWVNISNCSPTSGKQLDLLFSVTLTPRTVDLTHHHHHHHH

Row | Molecule | DNA-binding site (X any base, W adenine or thymine) [1] | Kd [2] | koff [2] | kon [2]
1 | C=CCOC(=O)N1c2cc(OCCCC(=O)Nc3cc(C(=O)Nc4ccc(NC(=O)C(F)(F)F)cc4)n(C)c3)c(OC)cc2C(=O)N2CCCC[C@H]2C1OC1CCCCO1 (stereo partly drawn) [Compound 17, Allyl (6aS)-2-methoxy-3-(4-((1-methyl-5-((4-(2,2,2-trifluoroacetamido)phenyl)carbamoyl)-1H-pyrrol-3-yl)amino)-4-oxobutoxy)-12-oxo-6-((tetrahydro-2H-pyran-2-yl)oxy)-6,6a,7,8,9,10-hexahydrobenzo[e]pyrido[1,2-a][1,4]diazepine-5(12H)-carboxylate] | XGXWWWW |  |  | 
2 | B1 |  | 0.635 nM | 0.000374 s⁻¹ | 589000 M⁻¹ s⁻¹
3 | B2 |  | 0.604 nM | 0.000401 s⁻¹ | 663000 M⁻¹ s⁻¹
